The DeepSol protein solubility set

Experiment: soluble on expression in E. coli; label from the status in PepcDB or PDB records

Row | Sequence | soluble on expression in E. coli
1 | MFDDLHEYLDFLARKNDLITVNDQVDPDLELTYILSEEERIGRGRTIQFNRVKGSEVPAVGNLFSTYEKMKTVLGDDPYQIGRRIVEIAQPPGDSESFIGKGIEMMRELGGLRPKIAGSLPSNYDELDRVDLFRYPICKTWPQDGGKFITLPLVITKDPETGTRNMGMYRMQVYDSETTGMHWHIHKGGSENFQKEAQKHEVMDVAVVIGSDPLTIFSAVAPLPNGIDEFMFRGLVSKKRFDLVKGKTVNLEYPRNFEIVLEGYIDPAETRIEGPFGDHTGYYSLEEQFPVFHIKKIIERRDRIYPTTIVGKLWHEDVIMGKTIERMFLPLIQMVMPEVVDINTMEEAVFHNMVIVSIKKRYPGHAKKVMFGLWGMGQMMFSKIIVVVDDDINVHNRKEVIWAMTTRIDPDRDVIIIPGTVTDSLDHASPIFNYGSKMGIDATKKRPDEGYQRRWPDVLEMPEDVTNRVRDLMKKNGMTQLEHHHHHH | not soluble
2 | MFDGEDLKKIFAMDGFLRNIEFEVSYISEGSIEIKVPLKENLMRVGDIMNGGAIMAISDAIGGLTVMTYGSVINQVTVNFNTEFIRPIGTGPVIFRSSMVRIGKNIAYVDVAAIDGNGQLCSKSMGTYYIYR | soluble
3 | MFDIPGLSTGDFHGFPSLLIQTPFSHAAISLFGGQLLSFVPSGGEEVIWLSPLVQPPPTAIRGGIPICWPYFGRQGQRDTMPAHGFVRTVPWQQVESCQENDGSLFLVLAPPPLKHLGLHLRMTLRIGRTLEQELATENISHAPISFTQALHNYFRVSNALQVTVQGLDGVEYLDKFEGYTQRHRQQGHWTLQDPRDPGRADRIYVDTSGHYVLVDPLFSRRIVLTTEGSHSLVVWNPGHAGASNMIDVADGWRDYLCLEPANAGPDEIELLPGARHVLRQSIAIAPL | soluble
4 | MFEIATAKVDNMRVSIVGGGFAGLAAAQLAEEVTSDVHLYDKGTYSGDRRGAWGEMVWDYSQLPLDRHVPGYVREATTGIFIGSDGKTAINVPDGVILNRGELEKHWASTLEETEIIADAEVDEAEFRKLSAESDLLIDATGQFPISRRFTSLSYDVACPTLSGRIEADFSHLYPEPRALAYENYFLWIVPQSPDEATIGLGCQEDKSPAELYEDMRQLLAEVDIEPPERETLYSGTDVSNGLRSLSDCSYELNDCTVHIAGDAIGLANRLTGFGMVHAAQSGQAAVRSFVQGESYTRRLLCQNFWTKAVTGVVSPVHHTIGLDGIARLAKSDIEYQESFEPQQPTDILSAVRIFILEHHHHHH | not soluble
5 | MFERNREATMIFNIQRYSTHDGPGIRTVVFLKGCSLGCRWCQNPESRARTQDLLYDPRLCLEGCKLCAKTAPEVIERALNGLLIHREKLTPEHFTALTDCCPTQALTVCGEVKSVEEIMATVLRDKPFYDRSGGGLTLSGGEPFMQPEMATALLQASHEAGIHTAVETCLHVPWKYIAPSLPYIDLFLADLKHVADAPFKQWTDGNAARVLDNLKKLAAAGKKIIIRVPLIQGFNADETSVKAITDFAADELHVSEIHFLPYHTLGINKYHLLNLPYDAPEKPLDAPELLDFAQQYACQKGLTATLRG | not soluble
6 | MFFRVKTTPTKAKPYVKPQNANNLQNNFNPRKIFTEYISKEETDAGIEDGSMFKGVLRINPKNYQECFLDHPKGTNHPDVLVLGQDRNRAMQGDVVAVKIKPKEDWLVNYVEYVKWWAEHKKGDRNSGKTDNNSPNKTEKRCLRNEIQDNGVTSDEVPDSCLITIGAIVHILEKKHFRVAAGKLQLMPNSANPNVLFVATDSRVPRILIPKSDVDKEFFSRPKDFERFLYTAKITDWRAESVYADGRLVKLLGMSGEIDTETERIVYEHQIDHREFSDECLESLPITTAENWKVPDAEFEYRRDFRSDIVFTIDPKTARDLDDALHAKHIDDCDGKGTPGLEIGVHIADVTFFLKEGTELDKWASERGNSTYLSQTVIPMLPRILCEQLCSLNPGVDRLSFSTVFKMSYEAELYDVWFGRSVIRSRVKLAYEHAQDFIENPEKDFTCDELPDISDGNTPFEIKEKTLMLHRIAQVLRQKREDSGALRIELPRLKFALDEDKKPQGVSIYEIKDSNKLVEEFMLLANMEVAKKIAENFPEHALLRNHPPPKEKMIKDVAEQCARIGFPLDGRTSGLLSTSLRKYQGKSRLDMCIRQVISSLTIKPMQQAKYFCTFEMPLSFYHHFALNVDHYTHFTSPIRRYPDVIVHRQLAAALGYNERSERVPEEIQEICTRCNDTKLASKEASDESAMLYFGVFIHQTGPMKCQAVVLGVMDLSFDVLIVEYGVVKRVYVDKMKRDFNKSTEKLTIYWPADPNAESGNREEFSSSIQMCNVVYVILVPYKSIEVSATIVRPSLEQRNILKSTLKDMKETGSTILQ | not soluble
7 | MFFVSLLFEFFDSIFEIAVMLGFEMLCRMAADSSVLHCLVAAYMGLGKLPATTEKHTYAQQDKSQSDQQKRSQKNCSHLLLYLRNTKVRFSYPQRSTINNS | not soluble
8 | MFGFPTATLLDCHGRYAQNVAFFNVMTEAHHKYDHSEATGSSSWDIQNSFRREKLEQKSPDSKTLQEDSPGVRQRVYECQECGKSFRQKGSLTLHERIHTGQKPFECTHCGKSFRAKGNLVTHQRIHTGEKPYQCKECGKSFSQRGSLAVHERLHTGQKPYECAICQRSFRNQSNLAVHRRVHSGEKPYRCDQCGKAFSQKGSLIVHIRVHTGLKPYACTQCRKSFHTRGNCILHGKIHTGETPYLCGQCGKSFTQRGSLAVHQRSCSQRLTL | soluble
9 | MFGIDGLEFLVILLVLIVVVGPKDLPKMLKTMARAIAYVRSTANEFRHQFDDAIKQAELDDLQKTLSDMNDFNPDKKLTGILNPMQDIRGDILNNFDVNTTHHKLEKDQENFECNENKTNEDLDVPVDAHSSGSVFVTSKDKESAS | not soluble
10 | MFHLSSLICCGCKPNFLGFERHHPFYDNDKKRICSSECGHSLCKKCFETYKNCPICAKPLVRIDNFMAREIYAFLKKTPMIVFDMWWNRSQNPSSTGRCSTCHKYDRILRWCITCEKDLKNSEAEWRRPKIEPNTDLQKELIKVSKERFRFGILANRVICSDCFLEHHAGHRVIFLDEMISALTEYSISDSATHLVQRFLWREIEERRGKCLLRTMRMKRAFLKLFYLACDSDLTDDYNDLPKFFERLDDWKVPDGYMEKVRKNLEHQFASANVPWKDCECRYAMRIMNDMFSFKNQIEKLFVSIVNDLDLHEITECPFKNSQITDMLQKTKKMVDIQLYKLYTLFCWNNYKDGVFELFNNSNRLPTKCCLCKMSTCAECWDEEPHKCGICDDATTSSRTDPDIVVLELVKHYKENCISLLEAWWECDAAQLGFCLNCASYTEDLEICVYCELDVERSALKTEVETSAEFTKDMQLRFTYKGLSGFPMRWQCSDCTTRHRKPTADVWNKGCNHFRYRSMYASVSSECFAHNHKSPCLRLKEIKNYDLAMKAATFGLVFKIIKEGIKEHVGSEHARKEILET | not soluble
11 | MFKRVHLIVLDSVGIGEAPDAEKFGDVGSDTLGHIAKEAGLTIPHLEKLGLGTIAPLTGVKAVADHDGYATKLEEISVGKDTMTGHWEIMGLNIKKPFRVFPNGFPEELLKQIEDFSGRKVVCNKPYSGTAVIDDYGEHQMKTGDLIVYTSADPVLQIAAHEDIIPLEELYKICQYVRDITKDEPYMIGRIIARPYVGEPGNFTRTSNRHDYALDPFGHTVLDSLKENGNDVIAVGKINDIFNGQGITEAIRTKSNMDGVDQLLTVMNKEFTGLSFTNLVDFDALYGHRRDVKGYAKAIEDFDGRLPEIMAAMAEDDLLLITADHGNDPTFPGTDHTREYVPLLAYSKKMTKQGSLPQGFYSDISATIAENFEVPATENGQSFLNQLQ | not soluble
12 | MFLLQAPLQRRILEIGKKHGITELHPDVVSYVSHATQQRLQNLVEKISETAQQKNFSYKDDDRYEQASDVRAQLK | soluble
